Laboratory results reported in US20260049141A1 (OSE IMMUNOTHERAPEUTICS, published 2026).
One block for each binder: values may come before it.

Key:
[1] = molecular target: Human CD28 expressed on Jurkat T cells (human, UniProt P10747 19-220); assay: cell-based or functional assay
[2] = molecular target: T1, Biotinylated human PD-1 (AcroBiosystems, reference EP-101) (human, UniProt Q15116 25-167, biotinylated); assay: competitive ELISA: recombinant human PD-L1 immobilized, antibody mixed with a fixed concentration of biotinylated human PD-1, streptavidin-peroxidase; blocked ligand PD-L1
T1 construct: Kit reagent; called both biotinylated Human PD1 and Biotin-PD-1Fc; also called Biotin-PD-1Fc; not described
T1 sequence (Q15116 25-167): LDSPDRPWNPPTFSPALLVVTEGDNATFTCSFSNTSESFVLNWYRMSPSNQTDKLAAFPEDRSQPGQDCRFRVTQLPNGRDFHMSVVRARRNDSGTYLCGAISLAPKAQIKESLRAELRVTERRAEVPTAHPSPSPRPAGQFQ
Method: (A) PD-1 binding ELISA assay. […] Revelation was performed using an anti-human Fc antibody coupled to peroxidase. Colorimetry was determined at 450 nm using TMB substrate. Data were normalized by the condition anti-PD-1*2 or anti-PD-1*1 at 20 nM; considered as 100% of binding for bivalent and monovalent figure respectively. N=2 independent experiments per condition. (B) Antagonist PD-1/PDL1 ELISA assay. […] Revelation was performed with a streptavidin coupled to peroxidase. Colorimetry was determined at 450 nm using TMB substrate. Percentage of antagonist activity was determined by the formula 100-((DO450 nM*100)/DO450 nM No Ab). N=2 independent experiments. (C) CD28 binding MSD assay. […] Revelation was performed with an anti-human Fc antibody coupled to SulfoTag. Electric signal was determined using MSD system. (D) Cis-activity Jurkat T cell-based bioassay. […] IL-2 secretion was quantified in the culture supernatant after 48 hours of stimulation and data were normalized by the condition without antibody. N=2-7 independent experiments.

[3] = molecular target: T2, Recombinant human CD28 (bio-techne, reference 342-CD-200) (human, UniProt P10747 19-152); assay: SPR (Biacore T200), hCD28 immobilized on CM5, antibody flowed at 0-3000 nM, bivalent model fit
T2 construct: Bought protein; also called hCD28 recombinant protein; human recombinant CD28 protein
Method: (§1) hCD28 recombinant protein (bio-techne, reference 342-CD-200) was immobilized to the CM5 sensorship at 20 ug/mL in Na Acetate pH5 in the Biacore T200. […] The antigen-antibody association kinetics was followed for 2 minutes, and the dissociation kinetics was followed for 10 minutes. The association and dissociation curves were fit to a bivalent model.

[4] = molecular target: T2, Recombinant human CD28 (bio-techne, …); assay: SPR (Biacore T200), hCD28 immobilized on CM5, antibody flowed; monovalent anti-CD28 scFv (Format B1), not the bivalent anti-CD28 antibody
Method: as §1

B1: Format B1 anti-PD-1*1/anti-CD28*1 scFv clone 2 (bispecific antibody)
chain 1: not shown
chain 2: PAPELLGGPSVFLFPPKPKDTLMISRTPEVTCVVVDVSHEDPEVKFNWYVDGVEVHNAKTKPREEQYASTYRVVSVLTVLHQDWLNGKEYKCKVSNKALPAPIEKTISKAKGQPREPQVYTLPPCRDELTKNQVSLWCLVKGFYPSDIAVEWESNGQPENNYKTTPPVLDSDGSFFLYSKLTVDKSRWQQGNVFSCSVMHEALHNHYTQKSLSLSPGK
VL: DVVMTQSPLSLPVTLGQPASISCRSSQSLVHANTNTYLEWYQQRPGQSPRLLIYKVSNRFSGVPDRFSGSGSGTDFTLKISRVEAEDVGVYYCFQGTHVPNTFGQGTKLEIK
IL-2 secretion by PD-1 negative Jurkat T cells (cis-activity bioassay, 100 nM), fold versus no antibody [1]: 4 fold

B5: Anti PD-1*1/anti CD28*1 scFv Format B1 (anti-PD-1 clone 1 / anti-CD28 clone 1) (bispecific antibody, V domains shown)
VH 1: QIQLVQSGSELKKPGASVKVSCKASGYTFTHYAMNWVRQAPGQGLEWMGWINTNTGEPTYAQGFTGRFVFSLDTSVSTAYLQISSLKAEDTAVYYCAREREPGMDNWGQGTLVTVSS
VL 1: DVVMTQSPLSLPVTLGQPASISCRSSQSLVHANTNTYLEWYQQRPGQSPRLLIYKVSNRFSGVPDRFSGSGSGTDFTLKISRVEAEDVGVYYCFQGTHVPNTFGQGTKLEIK
VH 2: QVKLQESGPGLVAPSQSLSITCTVSGFSLTSYGVYWVRQPPGKGLEWLGVIWAGGSTNYNSALMSRLSISKDNSKSQVFLKMNSLQTDDTAMYYCARDHYGSYGDYYAMDYWGQGTTVTVSS
VL 2: DIVLTQSPASLAVSLGQRATISCRASESVEYYDTSLMQWYQQKPGQPPKLLIYAASSVESGVPARFSGSGSGTDFSLNIHPVEEDDIAMYFCQQSRKVPWTFGGGTKLEIK
notes: Only the variable domains are tied to the molecule by name; also called anti PD-1/anti CD28 (Format B1); anti-PD-1*1/anti-CD28*1 scFv clone 1
Kd [3]: 5400 nM | koff [3]: 0.0249 s⁻¹ | kon [3]: 4620 M⁻¹ s⁻¹ | Kd [4]: ~5000 nM | IC50 (read off the curve) [2]: ~1 nM

B7: Format B1 anti-PD-1*1/anti-CD28*1 scFv clone 3 (bispecific antibody)
chain 1: not shown
chain 2: PAPELLGGPSVFLFPPKPKDTLMISRTPEVTCVVVDVSHEDPEVKFNWYVDGVEVHNAKTKPREEQYASTYRVVSVLTVLHQDWLNGKEYKCKVSNKALPAPIEKTISKAKGQPREPQVYTLPPCRDELTKNQVSLWCLVKGFYPSDIAVEWESNGQPENNYKTTPPVLDSDGSFFLYSKLTVDKSRWQQGNVFSCSVMHEALHNHYTQKSLSLSPGK
VL: DVVMTQSPLSLPVTLGQPASISCRSSQSLVHANTNTYLEWYQQRPGQSPRLLIYKVSNRFSGVPDRFSGSGSGTDFTLKISRVEAEDVGVYYCFQGTHVPNTFGQGTKLEIK
IL-2 secretion by PD-1 negative Jurkat T cells (cis-activity bioassay, 100 nM), fold versus no antibody [1]: 2 fold

B8: anti-CD28 bivalent clone 1 antibody with no anti-PD-1 valency (antibody, V domains shown)
VH: QVKLQESGPGLVAPSQSLSITCTVSGFSLTSYGVYWVRQPPGKGLEWLGVIWAGGSTNYNSALMSRLSISKDNSKSQVFLKMNSLQTDDTAMYYCARDHYGSYGDYYAMDYWGQGTTVTVSS
VL: DIVLTQSPASLAVSLGQRATISCRASESVEYYDTSLMQWYQQKPGQPPKLLIYAASSVESGVPARFSGSGSGTDFSLNIHPVEEDDIAMYFCQQSRKVPWTFGGGTKLEIK
notes: also called bivalent anti-CD28 antibody; Bivalent anti-CD28 (positive control)
Kd [3]: 75 nM | koff [3]: 0.000842 s⁻¹ | kon [3]: 11200 M⁻¹ s⁻¹

The remaining lines, values ahead:

IC50 (read off the curve) [2]: ~1 nM
B2: anti-PD-1/anti-CD28 multifunctional molecule Format B3 (scFv anti-CD28 fused to C-terminal of monovalent anti-PD1, clone 1) (bispecific antibody, V domains shown)
VH 1: QIQLVQSGSELKKPGASVKVSCKASGYTFTHYAMNWVRQAPGQGLEWMGWINTNTGEPTYAQGFTGRFVFSLDTSVSTAYLQISSLKAEDTAVYYCAREREPGMDNWGQGTLVTVSS
VL 1: DVVMTQSPLSLPVTLGQPASISCRSSQSLVHANTNTYLEWYQQRPGQSPRLLIYKVSNRFSGVPDRFSGSGSGTDFTLKISRVEAEDVGVYYCFQGTHVPNTFGQGTKLEIK
VH 2: QVKLQESGPGLVAPSQSLSITCTVSGFSLTSYGVYWVRQPPGKGLEWLGVIWAGGSTNYNSALMSRLSISKDNSKSQVFLKMNSLQTDDTAMYYCARDHYGSYGDYYAMDYWGQGTTVTVSS
VL 2: DIVLTQSPASLAVSLGQRATISCRASESVEYYDTSLMQWYQQKPGQPPKLLIYAASSVESGVPARFSGSGSGTDFSLNIHPVEEDDIAMYFCQQSRKVPWTFGGGTKLEIK

IC50 (read off the curve) [2]: ~2 nM
B3: anti-PD-1/anti-CD28 multifunctional molecule Format C2 (bivalent anti-PD-1 antibody fused to an anti-CD28 scFv, clone 1) (bispecific antibody, V domains shown)
VH 1: QIQLVQSGSELKKPGASVKVSCKASGYTFTHYAMNWVRQAPGQGLEWMGWINTNTGEPTYAQGFTGRFVFSLDTSVSTAYLQISSLKAEDTAVYYCAREREPGMDNWGQGTLVTVSS
VL 1: DVVMTQSPLSLPVTLGQPASISCRSSQSLVHANTNTYLEWYQQRPGQSPRLLIYKVSNRFSGVPDRFSGSGSGTDFTLKISRVEAEDVGVYYCFQGTHVPNTFGQGTKLEIK
VH 2: QVKLQESGPGLVAPSQSLSITCTVSGFSLTSYGVYWVRQPPGKGLEWLGVIWAGGSTNYNSALMSRLSISKDNSKSQVFLKMNSLQTDDTAMYYCARDHYGSYGDYYAMDYWGQGTTVTVSS
VL 2: DIVLTQSPASLAVSLGQRATISCRASESVEYYDTSLMQWYQQKPGQPPKLLIYAASSVESGVPARFSGSGSGTDFSLNIHPVEEDDIAMYFCQQSRKVPWTFGGGTKLEIK
notes: See Format C1; full chains not tied to the label in the text

IC50 (read off the curve) [2]: ~1 nM
B4: anti-PD-1/anti-CD28 multifunctional molecule Format C1 (bivalent anti-PD-1 antibody fused to an anti-CD28 scFv, clone 1) (bispecific antibody, V domains shown)
VH 1: QIQLVQSGSELKKPGASVKVSCKASGYTFTHYAMNWVRQAPGQGLEWMGWINTNTGEPTYAQGFTGRFVFSLDTSVSTAYLQISSLKAEDTAVYYCAREREPGMDNWGQGTLVTVSS
VL 1: DVVMTQSPLSLPVTLGQPASISCRSSQSLVHANTNTYLEWYQQRPGQSPRLLIYKVSNRFSGVPDRFSGSGSGTDFTLKISRVEAEDVGVYYCFQGTHVPNTFGQGTKLEIK
VH 2: QVKLQESGPGLVAPSQSLSITCTVSGFSLTSYGVYWVRQPPGKGLEWLGVIWAGGSTNYNSALMSRLSISKDNSKSQVFLKMNSLQTDDTAMYYCARDHYGSYGDYYAMDYWGQGTTVTVSS
VL 2: DIVLTQSPASLAVSLGQRATISCRASESVEYYDTSLMQWYQQKPGQPPKLLIYAASSVESGVPARFSGSGSGTDFSLNIHPVEEDDIAMYFCQQSRKVPWTFGGGTKLEIK
notes: Full chains not tied to the label in the text

IC50 (read off the curve) [2]: ~0.3 nM
B6: anti-PD-1/anti-CD28 multifunctional molecule Format C5 (scFv anti-CD28 fused to C-terminal of bivalent anti-PD1, clone 1) (bispecific antibody, V domains shown)
VH 1: QIQLVQSGSELKKPGASVKVSCKASGYTFTHYAMNWVRQAPGQGLEWMGWINTNTGEPTYAQGFTGRFVFSLDTSVSTAYLQISSLKAEDTAVYYCAREREPGMDNWGQGTLVTVSS
VL 1: DVVMTQSPLSLPVTLGQPASISCRSSQSLVHANTNTYLEWYQQRPGQSPRLLIYKVSNRFSGVPDRFSGSGSGTDFTLKISRVEAEDVGVYYCFQGTHVPNTFGQGTKLEIK
VH 2: QVKLQESGPGLVAPSQSLSITCTVSGFSLTSYGVYWVRQPPGKGLEWLGVIWAGGSTNYNSALMSRLSISKDNSKSQVFLKMNSLQTDDTAMYYCARDHYGSYGDYYAMDYWGQGTTVTVSS
VL 2: DIVLTQSPASLAVSLGQRATISCRASESVEYYDTSLMQWYQQKPGQPPKLLIYAASSVESGVPARFSGSGSGTDFSLNIHPVEEDDIAMYFCQQSRKVPWTFGGGTKLEIK
